Assay results: patent US11137400
Positions count from the first letter of the chain named.

Columns and labels:
[1] = test system: T1, Affinity-purified GST-tagged hXBP1s S288A mutant
T1 sequence: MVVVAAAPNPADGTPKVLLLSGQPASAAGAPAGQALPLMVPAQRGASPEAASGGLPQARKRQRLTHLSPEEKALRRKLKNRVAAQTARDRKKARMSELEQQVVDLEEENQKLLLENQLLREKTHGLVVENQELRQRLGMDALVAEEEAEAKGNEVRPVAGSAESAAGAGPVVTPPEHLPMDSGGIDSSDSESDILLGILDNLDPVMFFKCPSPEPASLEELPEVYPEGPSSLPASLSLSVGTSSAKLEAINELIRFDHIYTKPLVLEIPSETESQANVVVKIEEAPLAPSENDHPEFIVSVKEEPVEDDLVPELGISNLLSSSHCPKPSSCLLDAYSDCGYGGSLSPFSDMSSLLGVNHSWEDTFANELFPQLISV

[2] = test system: T2, Affinity-purified GST-tagged wild type (WT) hXBP1s
T2 sequence: T1 sequence with A288S

Active recombinant human JNK2α2 (Millipore)
in vitro kinase assay, phosphorylation in the presence of ^32P (autoradiography) [1]: mutation of Ser288 to A abolished JNKs-mediated phosphorylation of hXBP1s
in vitro kinase assay, phosphorylation in the presence of ^32P (autoradiography) [2]: JNK1, JNK2 or JNK3 was sufficient to directly phosphorylate hXBP1s
